Experimental data taken from the supplement of paper PMC10126150.
± gives the standard deviation of the averaged measurements.

Test system: ATP
Assay: switch fluorescence ratio, 500 uM ATP over buffer (Cy3 cluster intensity, sum of 5 cycles each) (fold (ratio)); higher = stronger signal-on switching upon ATP binding; sequences stand for … in TCGTCGGCAGCGTCAGATGTGTATAAGAGACAGTTTTTTTTTTTTTTTTTTTTTTTTT…TC
Conditions: aptamer strand: ATP DNA aptamer (quencher-CACCTGGGGGAGTATTGCGGAGGAAGG + anchor), 100 nM annealed; ATP concentration: 500 uM
Outline: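 Cy3-labelled switching-strand clusters on a modified Illumina MiSeq flow-cell were annealed to 100 nM quencher-labelled ATP aptamer and imaged first in selection buffer, then after 15 min with 500 uM ATP at 22 °C. NaOH stripping and re-annealing separated each of five buffer/ATP cycles, and clusters outside 100-1000 RFU were excluded. The fluorescence ratio sums target-cycle Cy3 intensity over buffer-cycle Cy3 intensity per cluster and averages it per switch-domain sequence.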
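Note: ATP exposure 15 min at 22 °C before imaging.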

Sequence	switch fluorescence ratio
AACCATCGGG	0.976 ± 0.013
AGCTAATTTT	1.02 ± 0.013
CGGCCTGTTG	1.01 ± 0.026
TACATGAAGG	0.995 ± 0.019
CATTGACCTT	1.23 ± 0.067
AACCACTTTA	1.06 ± 0.021
GTAAAATGTT	1.03 ± 0.035
GGTACGGCAA	1.09 ± 0.019
TCATTGGGAC	1.06 ± 0.028
TGACTAAACA	1.056 ± 0.0059
TGGGGGTTGA	1.01 ± 0.028
TGGACTAGAA	0.983 ± 0.042
AGGTGGAGGG	1 ± 0.032
ACCTGCGGGG	1.01 ± 0.023
TCACTATACT	1.41 ± 0.085
ATTTTCTTCA	1.02 ± 0.016
TATGTCTACA	0.9859 ± 0.0075
TATGTGTAAC	0.978 ± 0.02
ATTAGGATTG	1 ± 0.053
AGGTTGACTG	0.988 ± 0.1
TACGTTTGCG	1.01 ± 0.014
TTGGTCTATG	0.986 ± 0.027
GGTTACTGAG	0.98 ± 0.018
TTACCGTGGG	1.05 ± 0.029
TTGGTCGCGG	0.97078 ± 5.7e-05
GGAGAAGGCG	0.994 ± 0.053

Sequence	switch fluorescence ratio
CGGGCGATAA	1.45 ± 0.0045
AAATGTGGCA	0.9862 ± 0.002
CGCGTGGGGG	1.03 ± 0.081
TTTGGGGTAA	0.991 ± 0.029
GAGAGGGTAT	0.966 ± 0.012
TTAGAAAATA	1.12 ± 0.15
TAGGGGCTTT	1.04 ± 0.062
TAAGCGGGG	1.002 ± 0.0026
ATTTATTCTT	1.011 ± 0.0052
TGATGGCAAC	1.11 ± 0.036
GGCATACCGG	0.936 ± 0.019
GGGTTGCATG	0.976 ± 0.016
CATATGATTT	0.993 ± 0.019
TAATCGCTAA	1.13 ± 0.14
TTAAGGATGT	1 ± 0.014
ACGAAATGTT	0.988 ± 0.021
ACGGGGCGGC	1.11 ± 0.028
ACGTGAGTTT	0.957 ± 0.035
ATATTTTTTT	1 ± 0.03
GTGAGATGTA	0.991 ± 0.045
GAAGCGACTC	2.42 ± 0.03
AGGCATTAAT	1.01 ± 0.018
TAGAGTCTTT	0.994 ± 0.013
ATTTTCGGCG	1.001 ± 0.0054
CTAAAATTGA	0.985 ± 0.038
TTTAGATCAG	1.03 ± 0.013

Sequence	switch fluorescence ratio
CTAGGGGATG	1.03 ± 0.062
GCTAGTAAGT	0.9819 ± 0.0063
GGGCAATCGG	1.75 ± 0.97
GAGTCGAATT	0.9738 ± 0.0058
GGGGGTTCAA	0.983 ± 0.025
ATTGTATGGT	0.956 ± 0.012
GGTAGGGATC	1.017 ± 0.0042
CTAGAATGAT	1.014 ± 0.0072
TGACTTGGGG	0.995 ± 0.033
ACGAAATAGG	1.07 ± 0.035
CCGGTAAGTC	1.27 ± 0.026
GGGTTCCTAT	0.987 ± 0.013
TCTCATTACG	1.012 ± 0.0094
TTATTTGTTT	0.977 ± 0.018
ATGGACGCCT	1.01 ± 0.037
TGTGTTTTGG	0.99 ± 0.027
TTAGGTGGAG	0.977 ± 0.031
TGTTTAACAG	1.03 ± 0.05
ATCAGATAGC	0.977 ± 0.018
CGCTGAATTT	0.975 ± 0.03
CAGTTGACTC	1 ± 0.072
AACCAGAAGG	1.01 ± 0.035
TAATGTTTGC	1.01 ± 0.033
CGCGTCTGGG	1.01 ± 0.042
CATAGGGCAG	1.03 ± 0.012
GCCCAAGGGG	1.05 ± 0.091

Sequence	switch fluorescence ratio
TGGATTGAGC	0.967 ± 0.026
TAATGGTATG	0.982 ± 0.039
TTGGGTAGAA	0.986 ± 0.045
AGAAGAAGGC	0.988 ± 0.022
TAAAAGAGGG	0.9558 ± 0.0023
TTAAAGACGT	1.51 ± 0.7
CGTTATGTTC	0.9772 ± 0.0031
AATTGGAAAA	0.987 ± 0.019
AGGAAAGTGT	1.01 ± 0.017
ACTACTACTT	1.16 ± 0.019
TTGGGGGTTT	1.02 ± 0.036
ACGCCGGGGT	1.3 ± 0.51
TTATAAGGGA	0.977 ± 0.049
ATTTGAAACT	1.02 ± 0.029
TGTTTTGAAT	1.006 ± 0.0096
ACTCCGGGGA	2.4 ± 0.42
TGCATTAATG	0.989 ± 0.012
TACCGCGTGG	1.03 ± 0.017
TTTGGATGGT	0.996 ± 0.02
AGGTTAGGGC	0.984 ± 0.018
AGGCGGGGGT	1.018 ± 0.0094
AATCAGCCTC	1.01 ± 0.016
ACGGCATTTC	1.28 ± 0.047
ACTTATATAG	1.012 ± 0.0065
CGATTTCCTA	0.987 ± 0.015
TACGGTGTGG	0.989 ± 0.04

Sequence	switch fluorescence ratio
TCGTGCGGGT	1.001 ± 0.0081
CTGTCCTAAT	1.009 ± 0.0049
CACAGGGGGG	1.19 ± 0.34
GATGTTTTAC	0.998 ± 0.025
GGGGTAATAG	1.12 ± 0.14
GCGGGGTCCG	0.97126 ± 0.00059
GTTCTTACTT	0.973 ± 0.059
ATGGGTGGG	0.965 ± 0.032
TCATAAGTAT	0.995 ± 0.086
TTCGTTACAG	0.998 ± 0.027
TGCATATAAT	1.018 ± 0.0014
GCAAATGATG	1.01 ± 0.012
AGTTGTAAAG	0.985 ± 0.018
AGTTTACCGG	1.01 ± 0.022
TCATCGGGTC	1.05 ± 0.017
TATGTGGACA	0.9964 ± 0.0047
TCGGGCGTAT	1 ± 0.056
TTCGTTTAAT	0.9989 ± 0.0017
TTCGTTTTGT	0.9975 ± 0.0097
CGCATGGCCT	1.04 ± 0.072
GTTGTAGGTT	0.966 ± 0.023
GGAGGGGCTG	1.02 ± 0.085
GGCGCTTTGT	0.979 ± 0.02
TATAAGTTCC	1.07 ± 0.075
ATGATTGATG	1.02 ± 0.019
TATTTGTGTG	0.998 ± 0.029

Sequence	switch fluorescence ratio
AACTGTGGAT	0.999 ± 0.034
GGGGGTGTCG	0.994 ± 0.035
CGTTCTCTGT	0.987 ± 0.029
TTGTGTGGGG	1.01 ± 0.034
GAATTATATT	0.988 ± 0.021
GGGGGTTGGT	0.996 ± 0.026
TGATTCCTGC	1.02 ± 0.039
GGCCGGAGAC	1.15 ± 0.041
ATGTGGATGG	0.976 ± 0.023
CAATGGCCGA	0.9978 ± 0.0068
ACCGGGCGCC	0.967 ± 0.027
ATGGATGATG	0.991 ± 0.018
GCATGACTGT	1.01 ± 0.024
GTGTGCGGTG	0.982 ± 0.015
AAGGTTTTTA	0.993 ± 0.029
TCTGAAATAA	1.08 ± 0.048
GAGGGGAGAG	1 ± 0.016
TCTGTGGGGG	1.01 ± 0.016
TATAAGGTGT	1.23 ± 0.11
GGGGTGGGGC	1 ± 0.042
CTAGGAGCTT	1 ± 0.044
TGTGGCTATG	1.02 ± 0.014
CAGCTAAATT	1.02 ± 0.047
